Experiment [1] concerns the target recombinant human IL-13 (human, UniProt P35225 35-146). Nature of the experiment: cell-based or functional assay.
For experiment [2], the target named is T1, recombinant human IL-33 (human, UniProt O95760 112-270, limits assumed).
T1 sequence (looked up): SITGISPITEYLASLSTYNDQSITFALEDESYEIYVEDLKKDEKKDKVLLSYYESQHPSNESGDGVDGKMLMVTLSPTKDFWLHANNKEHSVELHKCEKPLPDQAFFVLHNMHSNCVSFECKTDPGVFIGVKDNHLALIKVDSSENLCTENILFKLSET
Nature of the experiment: cell-based or functional assay.

Experiment [3] concerns the target T2, human TSLP (long form) (human, UniProt Q969D9 29-159, Biotinylated on the Avi tag in some assays; glycosylated (Expi293F expression)).
T2 construct: biotinylated in some assays; also called lfhTSLP; hTSLP
Briefly: bridging sandwich ELISA: human TSLP coated, Tri-Fab-Fc titrated, IL-13-FLAG added, detected with HRP anti-FLAG (OD450nm).
Protocol: For this method, 25 μL/well of 1 μg/mL recombinant human TSLP (in PBS pH7.2) was coated onto a 384-well clear flat bottom Maxisorp plates (NUNC) overnight at 4° C. and blocked with PBS without Mg²⁺ and Ca²⁺ with 3% BSA. Serially diluted Tri-Fab-Fc variants were added to the plates and incubated for 1 hour at room temperature (RT). After washing away the unbound Tri-Fab-Fc by washing with buffer (PBS without Mg²⁺ and Ca²⁺ with 0.05% tween 20), 25 μL/well of 100 ng/mL IL-13-FLAG (Pfizer Inc) was added to the plates and incubated at RT for one hour. The Tri-Fab-Fc bound to both TSLP and IL-13 was detected by HRP conjugated anti-FLAG secondary antibody (Sigma, Cat #A8592).

Chain of recombinant human IL-13 (P35225 35-146 limits assumed): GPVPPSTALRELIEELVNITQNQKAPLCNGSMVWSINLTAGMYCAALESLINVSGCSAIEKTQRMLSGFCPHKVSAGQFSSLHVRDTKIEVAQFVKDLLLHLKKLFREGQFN

B1: IL13-1307 (antibody, human IgG1, kappa, V domains shown)
VH: EVQLVESGGGLVQPGGSLRLSCAASGFTFSSYAMSWVRQAPGKGLEWVASISSGDTTYYPDSVKGRFTISRDNAKNSLYLQMNSLRAEDTAVYYCARLDGYYFGFPYWGQGTLVTVSS
VL: DIQMTQSPSSLSASVGDRVTITCKASESVDHSGSSLMHWYQQKPGKAPKLLIYRASNLESGVPSRFSGSGSGTDFTLTISSLQPEDFATYYCQQSNEDPWTFGGGTKVEIKR
Take B1: in experiment [1], the “IC50 (median), Monocyte CD23 expression” value stood at 306 pM and the “IC50 (median), STAT6 phosphorylation in HT-29 cells” value came to 140 pM.

B2: IL33-158-152 (antibody, human IgG1, kappa, V domains shown)
VH: EVQLVESGGGLVQPGGSLRLSCAASGFTFSSYWMYWVRQAPGKGLEWVAAITPNAGEDYYPESVKGRFTISRDNAKNSLYLQMNSLRAEDTAVYYCARGHYYYTSYSLGYWGQGTLVTVSS
VL: DIQMTQSPSSLSASVGDRVTITCKASQNINKHLDWYQQKPGKAPKLLIYFTNNLQTGVPSRFSGSGSGTDFTLTISSLQPEDFATYYCFQYNQGWTFGGGTKVEIKR
Consider B2, for which, in experiment [2], the “IC50 (mean), HEK-Blue IL-33 SEAP” value is 42.9 pM.

B3: IL33-0726 (antibody, human IgG1, kappa, V domains shown)
VH: EVQLVESGGGLVQPGGSLRLSCAASGFTFSSYWMYWVRQAPGKGLEWVAAITPNAGEDYYPESVKGRFTISRDNAKNSLYLQMNSLRAEDTAVYYCARGQYYYTKYSLGYWGQGTLVTVSS
VL: DIQMTQSPSSLSASVGDRVTITCRASQPIHNHLDWYQQKPGKAPKLLIYFGKNLQEGVPSRFSGSGSGTDFTLTISSLQPEDFATYYCFQYKKGWSFGGGTKVEIKR
For B3, in experiment [2], the “IC50 (mean), HEK-Blue IL-33 SEAP” value stood at 8.27 pM.

B4: IL413TSLP-0008 (trispecific antibody, human IgG1, kappa, lambda)
heavy: EVQLVESGGGLVQPGGSLRLSCAASGFTFSSYAMSWVRQAPGKGLEWVASISSGDTTYYPDSVKGRFTISRDNAKNSLYLQMNSLRAEDTAVYYCARNEGYYFGLTLWGQGTLVTVSSASTKGPSVFPKAPSSKSTSGGTAALGCLVKDYFPEPVTVSWNSGALTSGVHTFPAVLQSSGLYSLSSSVTVPSSSLGTQTYICNVNHKPSNTKVDKKVEPKSCDKTHTCPPCPAPEAAGAPSVFLFPPKPKDTLMISRTPEVTCVVVDVSHEDPEVKFNWYVDGVEVHNAKTKPREEQYNSTYRVVSVLTVLHQDWLNGKEYKCKVSNKALPAPIEKTISKAKGQPREPQVCTLPPSREEMTKNQVSLWCLVKGFYPSDIAVEWESNGQPENNYKTTPPVLDSDGSFFLYSKLTVDKSRWQQGNVFSCSVMHEALHNHYTQKSLSLSPGK
chain 1: SYVLTQPPSVSVAPGQTARITCGGNNLGSKSVHWYQQKPGQAPVLVVYDDSDRPSWIPERFSGSNSGNTATLTISRGEAGDEADYYCQVWDSSSDHVVFGGGTKLTVLASTKGPSVFPLAPSSKSTSGGTAALGCLVKDYFPEPVTVSWNSGALTSGVHTFPAVLQSSGLYSLSSVVTVPSSSLGTQTYICNVNHKPSNTKVDKKVEPKSCGGGGSEVTLRESGPALVKPTQTLTLTCTFSGFSLSNFGEGLSWIRQPPGKGLEWLAHIYWDDDKRYNPSLKSRLTISKDTSRNQVVLTMTNMDPVDTATYYCARRETVFYWYFDVWGQGTTVTVSSASTKGPSVFPEAPSSKSTSGGTAALGCLVKDYFPEPVTVSWNSGALTSGVHTFPAVLQSSGLYSLGSVVTVPSSSLGTQTYICNVNHKPSNTKVDKKVEPKSCDKTHTCPPCPAPEAAGAPSVFLFPPKPKDTLMISRTPEVTCVVVDVSHEDPEVKFNWYVDGVEVHNAKTKPREEQYNSTYRVVSVLTVLHQDWLNGKEYKCKVSNKALPAPIEKTISKAKGQPREPQVYTLPPCREEMTKNQVSLSCAVKGFYPSDIAVEWESNGQPENNYKTTPPVLDSDGSFFLVSKLTVDKSRWQQGNVFSCSVMHEALHNHYTQKSLSLSPGK
light 1: DIQMTQSPSSLSASVGDRVTITCKASESVDHFGWSLVHWYQQKPGKAPKLLIYRASNLESGVPSRFSGSGSGTDFTLTISSLQPEDFATYYCQQSNEDPWTFGGGTKVEIKRTVAAPSVFIFPPSDEQLKSGTASVSCLLNNFYPREAKVQWKVDNALQSGNSQESVTEQDSKDSTYSLDSTLTLSKADYEKHKVYACEVTHQGLSSPVTKSFNRGEC
light 2: DIQMTQSPSSLSASVGDRVTITCKASQSVDEDGDSYMNWYQQKPGKAPKLLIYAASNLESGVPSRFSGSGSGTDFTLTISSLQPEDFATYYCQQSNEDPPTFGGGTKVEIKRTVAAPSVFIFPPSDEQLKSGTASVSCLLNNFYPREAKVQWKVDNALQSGNSQESVTEQDSKDSTYSLKSTLTLSKADYEKHKVYACEVTHQGLSSPVTKSFNRGEC
chain 2: QMQLVESGGGVVQPGRSLRLSCAASGFTFRTYGMHWVRQAPGKGLEWVAVIWYDGSNKHYADSVKGRFTITRDNSKNTLNLQMNSLRAEDTAVYYCARAPQWELVHEAFDIWGQGTMVTVSSGQPKAAPSVTLFPPSSEELQANKATLVCLISDFYPGAVTVAWKADSSPVKAGVETTTPSKQSNNKYAASSYLSLTPEQWKSHRSYSCQVTHEGSTVEKTVAPTECS
Take B4: the “EC50 (read off the curve)” value in experiment [3] was about 600 pM.

B5: IL413TSLP-0001 (trispecific antibody, human IgG1, kappa, lambda)
heavy: EVTLRESGPALVKPTQTLTLTCTFSGFSLSNFGEGLSWIRQPPGKGLEWLAHIYWDDDKRYNPSLKSRLTISKDTSRNQVVLTMTNMDPVDTATYYCARRETVFYWYFDVWGQGTTVTVSSASTKGPSVFPEAPSSKSTSGGTAALGCLVKDYFPEPVTVSWNSGALTSGVHTFPAVLQSSGLYSLGSVVTVPSSSLGTQTYICNVNHKPSNTKVDKKVEPKSCDKTHTCPPCPAPEAAGAPSVFLFPPKPKDTLMISRTPEVTCVVVDVSHEDPEVKFNWYVDGVEVHNAKTKPREEQYNSTYRVVSVLTVLHQDWLNGKEYKCKVSNKALPAPIEKTISKAKGQPREPQVYTLPPCREEMTKNQVSLSCAVKGFYPSDIAVEWESNGQPENNYKTTPPVLDSDGSFFLVSKLTVDKSRWQQGNVFSCSVMHEALHNHYTQKSLSLSPGK
chain 1: QMQLVESGGGVVQPGRSLRLSCAASGFTFRTYGMHWVRQAPGKGLEWVAVIWYDGSNKHYADSVKGRFTITRDNSKNTLNLQMNSLRAEDTAVYYCARAPQWELVHEAFDIWGQGTMVTVSSGQPKAAPSVTLFPPSSEELQANKATLVCLISDFYPGAVTVAWKADSSPVKAGVETTTPSKQSNNKYAASSYLSLTPEQWKSHRSYSCQVTHEGSTVEKTVAPTECSGGGGSEVQLVESGGGLVQPGGSLRLSCAASGFTFSSYAMSWVRQAPGKGLEWVASISSGDTTYYPDSVKGRFTISRDNAKNSLYLQMNSLRAEDTAVYYCARNEGYYFGLTLWGQGTLVTVSSASTKGPSVFPKAPSSKSTSGGTAALGCLVKDYFPEPVTVSWNSGALTSGVHTFPAVLQSSGLYSLSSSVTVPSSSLGTQTYICNVNHKPSNTKVDKKVEPKSCDKTHTCPPCPAPEAAGAPSVFLFPPKPKDTLMISRTPEVTCVVVDVSHEDPEVKFNWYVDGVEVHNAKTKPREEQYNSTYRVVSVLTVLHQDWLNGKEYKCKVSNKALPAPIEKTISKAKGQPREPQVCTLPPSREEMTKNQVSLWCLVKGFYPSDIAVEWESNGQPENNYKTTPPVLDSDGSFFLYSKLTVDKSRWQQGNVFSCSVMHEALHNHYTQKSLSLSPGK
light 1: DIQMTQSPSSLSASVGDRVTITCKASQSVDEDGDSYMNWYQQKPGKAPKLLIYAASNLESGVPSRFSGSGSGTDFTLTISSLQPEDFATYYCQQSNEDPPTFGGGTKVEIKRTVAAPSVFIFPPSDEQLKSGTASVSCLLNNFYPREAKVQWKVDNALQSGNSQESVTEQDSKDSTYSLKSTLTLSKADYEKHKVYACEVTHQGLSSPVTKSFNRGEC
light 2: DIQMTQSPSSLSASVGDRVTITCKASESVDHFGWSLVHWYQQKPGKAPKLLIYRASNLESGVPSRFSGSGSGTDFTLTISSLQPEDFATYYCQQSNEDPWTFGGGTKVEIKRTVAAPSVFIFPPSDEQLKSGTASVSCLLNNFYPREAKVQWKVDNALQSGNSQESVTEQDSKDSTYSLDSTLTLSKADYEKHKVYACEVTHQGLSSPVTKSFNRGEC
chain 2: SYVLTQPPSVSVAPGQTARITCGGNNLGSKSVHWYQQKPGQAPVLVVYDDSDRPSWIPERFSGSNSGNTATLTISRGEAGDEADYYCQVWDSSSDHVVFGGGTKLTVLASTKGPSVFPLAPSSKSTSGGTAALGCLVKDYFPEPVTVSWNSGALTSGVHTFPAVLQSSGLYSLSSVVTVPSSSLGTQTYICNVNHKPSNTKVDKKVEPKSC
B5: the “EC50 (read off the curve)” value in experiment [3] was about 600 pM.

Source of the values: patent US20240117030A1 (Pfizer, published 2024).
